In patent publication US20100310646A1 (AARHUS UNIVERSITET, published 2010):

Key:
[1] = target: T1, human pregnancy-associated plasma protein-A (PAPP-A) (human, UniProt Q13219 82-1627); experiment: ELISA
T1 construct: Recombinant, from 293T cells; also called human PAPP-A; full-length PAPP-A

human PAPP-A(D1499A) = human PAPP-A(D1499A) (human, UniProt Q13219 82-1627); experiment: ELISA, PAPP-A mutant captured with polyclonal PAPP-A antibodies
Method: (§1) A, PAC1 binding to human PAPP-A/PAPP-A2 chimeras or truncated human PAPP-A variants analyzed by ELISA. Sequence derived from PAPP-A is shown by open bars, and absence of binding (−) or binding (+) is indicated. […] Samples with or without EDTA (10 mM) were injected (120 s) followed by dissociation (180 s) (solid lines). […] The absence of binding (−) or binding (+) is indicated. PAC5, which was used as a positive control, binds to an epitope of PAPP-A located N-terminal to CCP1.
(§2) Determination of antibody specificity and mapping of antibody binding—Mapping of antibody binding was carried out by ELISA using PAPP-A/PAPP-A2 chimeric proteins, and mutated variants of PAPP-A. The proteins were immobilized with polyclonal PAPP-A antibodies, and binding of phage antibodies were analyzed as detailed above.

human PAPP-A(D1484A) = human PAPP-A(D1484A) (human, UniProt Q13219 82-1627); experiment: as above
Method: as §1, §2

human PAPP-A(D1502A) = human PAPP-A(D1502A) (human, UniProt Q13219 82-1627); experiment: as above
Method: as §1, §2

[2] = target: T2, PA 1-950 (fragment of human PAPP-A, residues 1-950) (human, UniProt Q13219 82-1030); experiment: binding of PAC5 to fragments of human PAPP-A
T2 sequence: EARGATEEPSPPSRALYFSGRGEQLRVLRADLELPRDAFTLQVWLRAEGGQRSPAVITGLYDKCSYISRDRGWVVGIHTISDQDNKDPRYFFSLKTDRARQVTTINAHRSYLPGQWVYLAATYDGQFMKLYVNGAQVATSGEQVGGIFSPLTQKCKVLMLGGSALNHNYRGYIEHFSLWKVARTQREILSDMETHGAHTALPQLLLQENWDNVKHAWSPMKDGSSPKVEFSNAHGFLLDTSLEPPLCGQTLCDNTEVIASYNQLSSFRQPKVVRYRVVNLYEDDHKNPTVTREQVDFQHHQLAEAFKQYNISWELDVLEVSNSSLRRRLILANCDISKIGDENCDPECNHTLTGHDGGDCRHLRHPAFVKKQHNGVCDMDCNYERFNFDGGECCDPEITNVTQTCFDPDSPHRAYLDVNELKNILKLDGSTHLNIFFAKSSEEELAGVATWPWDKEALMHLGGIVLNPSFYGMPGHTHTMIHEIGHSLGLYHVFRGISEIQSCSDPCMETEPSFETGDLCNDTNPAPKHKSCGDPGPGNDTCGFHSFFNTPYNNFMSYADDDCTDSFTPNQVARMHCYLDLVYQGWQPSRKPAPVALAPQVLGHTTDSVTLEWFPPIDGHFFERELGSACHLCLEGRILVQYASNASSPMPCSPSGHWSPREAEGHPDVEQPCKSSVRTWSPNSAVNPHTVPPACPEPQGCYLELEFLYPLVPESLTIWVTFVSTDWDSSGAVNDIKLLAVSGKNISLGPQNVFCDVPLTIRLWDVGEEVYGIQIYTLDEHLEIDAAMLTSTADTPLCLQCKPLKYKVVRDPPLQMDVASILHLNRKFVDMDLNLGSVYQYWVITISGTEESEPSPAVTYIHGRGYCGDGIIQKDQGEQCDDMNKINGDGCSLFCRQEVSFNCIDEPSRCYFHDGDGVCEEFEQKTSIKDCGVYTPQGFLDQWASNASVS

[3] = target: T3, PA 937-1547 (fragment of human PAPP-A, residues 937-1547) (human, UniProt Q13219 1017-1627); experiment: binding of PAC5 to fragments of human PAPP-A
T3 sequence: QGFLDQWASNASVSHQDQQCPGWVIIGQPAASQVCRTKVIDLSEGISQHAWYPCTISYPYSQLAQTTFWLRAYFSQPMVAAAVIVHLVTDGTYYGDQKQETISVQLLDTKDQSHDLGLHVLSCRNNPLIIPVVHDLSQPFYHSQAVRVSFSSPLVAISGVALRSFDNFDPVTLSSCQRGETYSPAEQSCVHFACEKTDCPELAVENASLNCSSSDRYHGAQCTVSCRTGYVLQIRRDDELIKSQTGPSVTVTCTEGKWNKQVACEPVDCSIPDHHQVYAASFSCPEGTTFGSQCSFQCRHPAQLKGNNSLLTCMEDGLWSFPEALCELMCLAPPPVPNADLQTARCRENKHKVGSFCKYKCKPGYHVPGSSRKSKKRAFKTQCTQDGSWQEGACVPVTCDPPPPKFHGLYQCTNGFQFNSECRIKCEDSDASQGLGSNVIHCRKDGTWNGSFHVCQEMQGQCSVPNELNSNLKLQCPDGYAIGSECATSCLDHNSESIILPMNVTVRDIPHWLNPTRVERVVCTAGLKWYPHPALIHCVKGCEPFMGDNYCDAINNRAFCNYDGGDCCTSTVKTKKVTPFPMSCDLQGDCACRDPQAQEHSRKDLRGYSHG

[4] = target: T4, PA 1-599 (fragment of human PAPP-A, residues 1-599) (human, UniProt Q13219 82-679); experiment: binding of PAC5 to fragments of human PAPP-A
T4 sequence: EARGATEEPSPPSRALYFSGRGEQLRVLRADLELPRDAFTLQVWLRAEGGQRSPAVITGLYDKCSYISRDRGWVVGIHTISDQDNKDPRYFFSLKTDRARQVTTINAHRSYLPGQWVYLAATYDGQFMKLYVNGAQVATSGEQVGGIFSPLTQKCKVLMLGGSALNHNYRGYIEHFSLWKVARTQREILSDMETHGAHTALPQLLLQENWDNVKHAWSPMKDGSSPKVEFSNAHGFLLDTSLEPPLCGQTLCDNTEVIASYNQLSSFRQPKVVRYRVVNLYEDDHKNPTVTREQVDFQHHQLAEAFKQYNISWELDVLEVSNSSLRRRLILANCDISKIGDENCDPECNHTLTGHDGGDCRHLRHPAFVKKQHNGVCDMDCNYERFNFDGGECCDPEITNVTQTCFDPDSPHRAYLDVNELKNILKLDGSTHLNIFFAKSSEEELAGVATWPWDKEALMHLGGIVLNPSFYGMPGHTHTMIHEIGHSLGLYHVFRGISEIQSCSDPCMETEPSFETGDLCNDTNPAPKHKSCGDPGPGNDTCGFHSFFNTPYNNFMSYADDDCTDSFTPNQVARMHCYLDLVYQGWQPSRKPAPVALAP

binding result [1]: binds
binding result (human PAPP-A(D1499A)): binds
binding result (human PAPP-A(D1484A)): binds
binding result (human PAPP-A(D1502A)): binds
binding result [2]: binds
binding result [3]: no binding
binding result [4]: no binding
B1: PAC5 (PAPP-A non-exosite antibody, scFv) (scFv)
scFv: EVQLLESGGGLVQPGGSLRLSCAASGFTFSSYAMSWVRQAPGKGLEWVSAISPAGVMTQYADSVKGRFTISRDNSKNTLYLQMNSLRAEDTAVYYCAKQQGGFDYWGQGTLVTVSSGGGGSGGGGSGGGGSTDIQMTQSPSSLSASVGDRVTITCRASQSISSYLNWYQQKPGKAPKLLIYRASALQSGVPSRFSGSGSGTDFTLTISSLQPEDFATYYCQQPIARPPTFGQGTKVEIKRAAAHHHHHHGAAEQKLISEEDLNGAA
notes: Obtained by screening on full-length human PAPP-A and used as a control antibody in the scFv format; also called clone PAC5
